{"source": "patent US20250332277A1", "about": "“PROTEIN TYROSINE KINASE 7 ANTIBODIES AND ANTIBODY-DRUG CONJUGATES” (Eli Lilly and Company, priority 2024, published 2025)", "molecules": {"B1": {"name": "Cofetuzumab: humanized anti-PTK-7 IgG1 antibody (hu6M024) with the sequence as disclosed in WO2012112943 (antibody, chains of the INN, looked up, V domains shown)", "VH": "QVQLVQSGPEVKKPGASVKVSCKASGYTFTDYAVHWVRQAPGKRLEWIGVISTYNDYTYNNQDFKGRVTMTRDTSASTAYMELSRLRSEDTAVYYCARGNSYFYALDYWGQGTSVTVSS", "VL": "EIVLTQSPATLSLSPGERATLSCRASESVDSYGKSFMHWYQQKPGQAPRLLIYRASNLESGIPARFSGSGSGTDFTLTISSLEPEDFAVYYCQQSNEDPWTFGGGTKLEIK"}, "B2": {"name": "Ab4: fully human PTK-7 antibody, human IgG1-AAS (L234A/L235A/D265S), kappa; HC SEQ ID NO: 32, LC SEQ ID NO: 33 (antibody)", "heavy": "EVQLVESGGGLVKPGGSLRLSCAASGFTFSSYSMNWVRQAPGKGLEWVSSIDSSSSFIYYADSVKGRFTISRDNAKNSLYLQMNSLRAEDTAVYYCARGTGLFDFWGQGTLVTVSSASTKGPSVFPLAPSSKSTSGGTAALGCLVKDYFPEPVTVSWNSGALTSGVHTFPAVLQSSGLYSLSSVVTVPSSSLGTQTYICNVNHKPSNTKVDKRVEPKSCDKTHTCPPCPAPEAAGGPSVFLFPPKPKDTLMISRTPEVTCVVVSVSHEDPEVKFNWYVDGVEVHNAKTKPREEQYNSTYRVVSVLTVLHQDWLNGKEYKCKVSNKALPAPIEKTISKAKGQPREPQVYTLPPSREEMTKNQVSLTCLVKGFYPSDIAVEWESNGQPENNYKTTPPVLDSDGSFFLYSKLTVDKSRWQQGNVFSCSVMHEALHNHYTQKSLSLSPGK", "light": "EIVLTQSPGTLSLSPGERATLSCRASQSFSSSYLAWYQQKPGQAPRLLIYGASSRATGIPDRFSGSGSGTDFTLTISRLEPEDFAVYYCQQYGRTPWTFGQGTKVEIKRTVAAPSVFIFPPSDEQLKSGTASVVCLLNNFYPREAKVQWKVDNALQSGNSQESVTEQDSKDSTYSLSSTLTLSKADYEKHKVYACEVTHQGLSSPVTKSFNRGEC"}, "B3": {"name": "Cofetuzumab-Pelidotin: ADC with a cleavable valine-citrulline linker, auristatin-0101 as the payload with a drug-to-antibody ratio (DAR) of 4 (conjugate, chains of the INN, looked up)", "VH": "B1 VH", "VL": "B1 VL", "modifications": "pelidotin: vc linker, auristatin-0101, DAR 4"}, "B4": {"name": "Ab1: fully human PTK-7 antibody, human IgG1-AAS (L234A/L235A/D265S), kappa; HC SEQ ID NO: 2, LC SEQ ID NO: 3 (antibody)", "heavy": "EVQLVESGGGLVKPGGSLRLSCAASGFTFSSYIMNWVRQAPGKGLEWVSSISSSSTFIYYADSVKGRFTISRDNAKNSLYLQMNSLRAEDTAVYYCAKGFDYWGQGTLVTVSSASTKGPSVFPLAPSSKSTSGGTAALGCLVKDYFPEPVTVSWNSGALTSGVHTFPAVLQSSGLYSLSSVVTVPSSSLGTQTYICNVNHKPSNTKVDKRVEPKSCDKTHTCPPCPAPEAAGGPSVFLFPPKPKDTLMISRTPEVTCVVVSVSHEDPEVKFNWYVDGVEVHNAKTKPREEQYNSTYRVVSVLTVLHQDWLNGKEYKCKVSNKALPAPIEKTISKAKGQPREPQVYTLPPSREEMTKNQVSLTCLVKGFYPSDIAVEWESNGQPENNYKTTPPVLDSDGSFFLYSKLTVDKSRWQQGNVFSCSVMHEALHNHYTQKSLSLSPGK", "light": "DIQLTQSPSFLSASVGDRVTITCRASQDISSYLVWYQQKPGKAPKLLIYAASTLQSGVPSRFSGSGSGTEFTLTISSLQPEDFATYYCQQLNTYPRTFGQGTKVEIKRTVAAPSVFIFPPSDEQLKSGTASVVCLLNNFYPREAKVQWKVDNALQSGNSQESVTEQDSKDSTYSLSSTLTLSKADYEKHKVYACEVTHQGLSSPVTKSFNRGEC"}}, "key": {"OV90-human PTK7 cells": {"tested_on": "OV90-human PTK7 cells", "experiment": "In vitro CDC assay with human serum complement", "format": "cell-based", "conditions": "PTK-7 expressing OV90 cell line, 3 hours", "method": "OV90 cell line was engineered to express high level of human PTK7, having antibody binding capacity of 500,000 (using MESF quantification kit, Bangs Laboratories). OV90-human PTK7 cells were added in white clear-bottom 96-well tissue culture plates in assay medium (1:1 MCDB105/Medium199+1×GlutaMax+15% Heat Inactivated Fetal Bovine Serum) and incubated in the incubator at 37° C. with 5% CO2 overnight. Next day, 50 μL/well antibodies were added at final working concentration from 200 nM, 1:3 serially diluted in assay medium and incubated at 37° C. with 5% CO2 for one hour. Diluted human serum complement (1:3) was then added at 50 μL/well in assay medium and incubated at 37° C. with 5% CO2 for 3 hours. Plate was read using CellTiter-Glo Luminescent Cell Viability Assay. 100 μL/well CellTiter-Glo reagent were incubated in plates at room temperature for 10 min. Luminescence was read on a SpectraMax M5e. RLUs (Relative Light Units) were obtained with SoftMax Pro 5.4. Percentage of cell killing was calculated against no treatment. Data was graphed and analyzed using GraphPad Prism version 9.5.1."}, "[1]": {"tested_on": "HeLa PTK-7-eGFP overexpressing engineered cells", "experiment": "Internalization / lysosomal trafficking by pHrodo fluorescence imaging", "format": "cell-based, human", "conditions": "6 μg/ml (40 nM)", "method": "Single clone HeLa PTK-7-eGFP overexpressing engineered cells were plated at 5,000 cells per well in a 384-well plate (PhenoPlate 384-well, black, optically clear flat-bottom, tissue-culture treated, PerkinElmer 6057308) in complete culture medium (DMEM, +10% FBS+Glutamax+Pen/Strep). Next day, the cells were treated with 6 μg/ml (40 nM) ADCs or antibodies and pHrodo labeling reagent (Zenon™ pHrodo™ iFL IgG labeling reagents, Catalog number: Z25612, Invitrogen™) with concentration of 6 μg/mL (120 nM). The ADCs or antibodies was mixed with pHrodo labeling reagent for at least 10 min prior to adding to the cells. Then, the cells were imaged using the Opera Phenix Plus high-content screening system every 90 min up to 24 hours. Data were processed and analyzed in Harmony and Microsoft Excel and graphed in GraphPad Prism."}, "[2]": {"tested_on": "NCI-H446 human lung cancer cells", "experiment": "Cell surface binding by flow cytometry, NCI-H446 (medium expression)", "format": "cell-based", "conditions": "Cofetuzumab max MFI set at 100%", "method": "(§1) Certain PTK-7 antibodies of the present disclosure were tested for cell surface binding to three PTK-7 expressing tumor cell lines. Cell lines were selected to represent high, medium, and low receptor densities. OV90-PTK-7, overexpressing engineered ovarian tumor line representing high expression, NCI-H446 human lung cancer cells representing medium endogenous expression and OVCAR-3 human ovarian cancer cells representing low endogenous expression. […] OV90 parental cells and Namalwa-luc-GFP cells were selected as the PTK-7 negative cell lines. Antibody binding was quantified via flow cytometry and both the EC50 of the binding curves and the maximum binding MFI for each antibody were recorded.\n(§2) Cells were dissociated using non-enzymatic dissociation buffer for 5 min at 37° C. Cells were counted and aliquoted to a V-bottom polypropylene 96-well plate at 10^5 cells/well. Cells were centrifuged at 1800 rpm×3 min and the supernatant discarded. […]\n(§3) Cells were acquired on an Attune Cytpix Cytometer and FCS files generated using Attune™ Cytometric Software (v. 6.0.1). FCS files were then analyzed on FlowJo (v10.8.1). […] Finally, dead cells positive for staining with Zombie Green were excluded and the MFIs of live, Alexa647 positive cells were quantified. Data was graphed and analyzed on GraphPad Prism (v10.1.1)."}, "OV90-PTK-7": {"tested_on": "OV90-PTK-7", "experiment": "Cell surface binding by flow cytometry, OV90-PTK-7 (high expression)", "format": "cell-based, human", "conditions": "Cofetuzumab max MFI set at 100%", "method": "as §1, §2, §3"}, "[3]": {"tested_on": "OVCAR-3 human ovarian cancer cells", "experiment": "Cell surface binding by flow cytometry, OVCAR3 (low expression)", "format": "cell-based", "conditions": "Cofetuzumab max MFI set at 100%", "method": "as §1, §2, §3"}, "[4]": {"tested_on": "Namalwa-Luc-GFP cells co-cultured with OV90-PTK-7", "experiment": "Bystander effect on Namalwa-Luc-GFP co-cultured with OV90-PTK-7 (ONE-Glo)", "format": "cell-based", "conditions": "OV90-PTK-7 + Namalwa-Luc-GFP, ratio 2:1; 5-days treatment; Namalwa-Luc-GFP killing", "method": "(§4) In flat clear bottom 96-well plates, OV90-PTK-7: Namalwa-Luc-GFP clone cells were mixed and seeded at a total of 3000 cells/well/100 μL with a ratio of 2:1 in culture medium (1:1 MCDB105: Medium 199+15% Heat Inactivated Fetal Bovine Serum+1×Glutamax). Namalwa-Luc-GFP cells were negative for PTK-7 expression. Plates were incubated at 37° C. with 5% CO2 overnight. Next day, ADCs were added at final working concentration from 50 nM, 1:4 serially diluted in culture medium. Plates were covered with Breathe-Easy® sealing membrane. Plates were read after 5-days treatment using ONE-Glo™ Luciferase Assay System. 100 μL/well ONE-Glo™ Assay reagent was incubated in plates at room temperature for 10 min. Luminescence was read in the SpectraMax M5e. RLUs (Relative Light Units) were obtained with SoftMax Pro 5.4. Percentage of Namalwa-Luc-GFP killing was calculated against no treatment as 0%. Data was graphed and analyzed using Graphpad Prism version v10.1.1. IC50 was determined via log (inhibitor) vs. response (three parameters) curve fitting for ADC cytotoxicity."}, "OVCAR-3": {"tested_on": "OVCAR-3", "experiment": "ADC cytotoxicity (CellTiter-Glo) on low PTK-7 expressing cells", "format": "cell-based, human", "conditions": "7 days treatment", "method": "OVCAR3 cells were seeded in white clear-bottom 96-well tissue culture plates in culture medium (OVCAR3: ATCC modified RPMI 1640+1× GlutaMax+20% Heat Inactivated Fetal Bovine Serum+10 μg/mL bovine insulin). Cells were incubated at 37° C. with 5% CO2 overnight. Next day, ADCs were added at final working concentration from 200 nM, 1:4 serially diluted in culture medium. Plates were covered with Breathe-Easy® sealing membrane and incubated at 37° C. with 5% CO2. Plates were read after 7 days treatment using CellTiter-Glo Luminescent Cell Viability Assay. 100 μL/well CellTiter-Glo reagent were incubated in plates at room temperature for 10 min. Luminescence was read in the SpectraMax M5e. RLUs (Relative Light Units) were obtained with SoftMax Pro 5.4. Percentage of cell killing was calculated against no treatment as 0%. Data was graphed and analyzed using Graphpad Prism version v10.1.1. IC50 was determined via log (inhibitor) vs. response-variable slope (four parameters) curve fitting."}, "[5]": {"tested_on": "Namalwa-Luc-GFP cells co-cultured with NCI-H446", "experiment": "Bystander effect on Namalwa-Luc-GFP co-cultured with NCI-H446 (ONE-Glo)", "format": "cell-based", "conditions": "ratio 9:1, 7-days treatment, Namalwa-Luc-GFP killing", "method": "as §4\nIn flat clear bottom 96-well plates, NCI-H446: Namalwa-Luc-GFP clone cells were mixed and seeded at a total of 5000 cells/well/100 μL with a ratio of 9:1 in culture medium (RPMI 1640+10% Heat Inactivated Fetal Bovine Serum+1× Glutamax+1 mM sodium pyruvate). […] Plates were read after 7-days treatment using ONE-Glo™ Luciferase Assay System."}, "OVCAR3": {"tested_on": "OVCAR3", "experiment": "OVCAR3 tumor xenograft model", "format": "in vivo, mice", "conditions": "OVCAR3 (Day 61); single intravenous dose 2 mg/kg", "method": "Tumors were measured biweekly using a digital caliper."}}}
{"molecule": "B1", "values": [{"measurement": "CDC potential", "setting": "OV90-human PTK7 cells", "value": "did not show CDC potential"}, {"measurement": "pHrodo intensity signal at 24 hrs", "setting": "[1]; Antibodies", "value": "2.44 ± 0.14"}, {"measurement": "% of Cofetuzumab (Average Max MFI)", "setting": "[2]", "value": 100, "unit": "%"}, {"measurement": "% of Cofetuzumab (Average Max MFI)", "setting": "OV90-PTK-7", "value": 100, "unit": "%"}, {"measurement": "% of Cofetuzumab (Average Max MFI)", "setting": "[3]", "value": 100, "unit": "%"}]}
{"molecule": "B2", "values": [{"measurement": "pHrodo intensity signal at 24 hrs", "setting": "[1]; Antibodies", "value": "2.83 ± 0.18"}]}
{"molecule": "B3", "values": [{"measurement": "IC50", "setting": "[4]", "value": 1.5, "unit": "nM"}, {"measurement": "pHrodo intensity signal at 24 hrs", "setting": "[1]; ADCs", "value": "1.71 ± 0.06"}, {"measurement": "IC50", "setting": "OVCAR-3", "value": 2.53, "unit": "nM"}, {"measurement": "IC50", "setting": "[5]", "value": 3.18, "unit": "nM"}, {"measurement": "Mean tumor volume", "setting": "OVCAR3", "value": 352.26, "unit": "mm^3"}]}
{"molecule": "B4", "values": [{"measurement": "pHrodo intensity signal at 24 hrs", "setting": "[1]; Antibodies", "value": "3.00 ± 0.1"}]}
